Results taken from PMC2837607, “Orthophosphate binding at the dimer interface of Corynebacterium callunae starch phosphorylase: mutational analysis of its role for activity and stability of the enzyme” (BMC Biochemistry, 2010).
Where “and” joins values, the source holds several entries; their conditions need not be identical. Equal entries are not always repeated. Values belong to the compound of their own block, whether it stands above or below them.

Tests used:
[1] = target: T1, Corynebacterium callunae starch phosphorylase (CcGlgP) (Corynebacterium callunae, UniProt Q8KQ56); details: 50 mM triethanolamine, pH 7.0; dimer-interface P- and CAP-sites, not the catalytic site; stabilisation against subunit dissociation
[2] = target: T2, Corynebacterium callunae starch phosphorylase (CcGlgP) (Corynebacterium callunae, UniProt Q8KQ56, K32A); experiment: colorimetric PLP quantitation of the isolated enzyme; format: binding; details: covalent (Schiff base with active-site Lys); as isolated
T2 construct: full-length, N-terminal RGSHHHHHHGSA tag kept, from pQE 30-GlgP in E. coli JM109; homodimer (small tetramer fraction caused by tag); PLP enzyme
Excerpt: (§1) colorimetric PLP quantitation of the isolated enzyme on Corynebacterium callunae starch phosphorylase (CcGlgP)

[3] = target: T3, Corynebacterium callunae starch phosphorylase (CcGlgP) (Corynebacterium callunae, UniProt Q8KQ56, R142A); experiment: as above; format: binding; details: covalent (Schiff base with active-site Lys); as isolated
T3 construct: full-length, N-terminal RGSHHHHHHGSA tag kept, from pQE 30-GlgP in E. coli JM109; homodimer (small tetramer fraction caused by tag); PLP enzyme
Excerpt: as §1

[4] = target: T4, Corynebacterium callunae starch phosphorylase (CcGlgP) (Corynebacterium callunae, UniProt Q8KQ56, S175A); experiment: as above; format: binding; details: covalent (Schiff base with active-site Lys); as isolated
T4 construct: full-length, N-terminal RGSHHHHHHGSA tag kept, from pQE 30-GlgP in E. coli JM109; homodimer (small tetramer fraction caused by tag); PLP enzyme
Excerpt: as §1

[5] = target: T5, Corynebacterium callunae starch phosphorylase (CcGlgP) (Corynebacterium callunae, UniProt Q8KQ56, T29A); experiment: as above; format: binding; details: covalent (Schiff base with active-site Lys); as isolated
T5 construct: full-length, N-terminal RGSHHHHHHGSA tag kept, from pQE 30-GlgP in E. coli JM109; homodimer (small tetramer fraction caused by tag); PLP enzyme
Excerpt: as §1

[6] = target: T1, Corynebacterium callunae starch phosphorylase (CcGlgP); experiment: as above; format: binding; parameters: full-length, N-terminal RGSHHHHHHGSA tag kept, from pQE 30-GlgP in E. coli JM109; homodimer (small tetramer fraction caused by tag); PLP enzyme; details: covalent (Schiff base with active-site Lys); as isolated
Excerpt: as §1

[7] = target: T1, Corynebacterium callunae starch phosphorylase (CcGlgP); experiment: initial rate of glucan synthesis, Pi release; format: biochemical; parameters: full-length, N-terminal RGSHHHHHHGSA tag kept, from pQE 30-GlgP in E. coli JM109; homodimer (small tetramer fraction caused by tag); PLP enzyme; details: 50 mM G1P, 20 g/l starch, pH 7.0, 30 °C; apparent activation through dimer stabilisation, not allosteric
[8] = target: Corynebacterium callunae starch phosphorylase K31A (Corynebacterium callunae)
[9] = target: Corynebacterium callunae starch phosphorylase R141A (Corynebacterium callunae)
[10] = target: Corynebacterium callunae starch phosphorylase R141A (Corynebacterium callunae); experiment: SEC; R141A as isolated, prior to imidazole, 0.4 mg/ml; HiLoad 16/60 Superdex 200 prep grade, 50 mM potassium phosphate buffer pH 7.0, 0.15 M NaCl, 1 ml/min; calibrated with Bio-Rad Gel Filtration Standard
[11] = target: Corynebacterium callunae starch phosphorylase S174A (Corynebacterium callunae)
[12] = target: Corynebacterium callunae starch phosphorylase S174A (Corynebacterium callunae); remark: listed apart in the source
[13] = target: Corynebacterium callunae starch phosphorylase T28A (Corynebacterium callunae)
[14] = target: Corynebacterium callunae starch phosphorylase, wild-type (Corynebacterium callunae)
[15] = target: Corynebacterium callunae starch phosphorylase, wild-type (Corynebacterium callunae); remark: listed apart in the source
[16] = target: Corynebacterium callunae starch phosphorylase, wild-type (Corynebacterium callunae); remark: listed apart in the source

T1 sequence (Q8KQ56 entry or part of it): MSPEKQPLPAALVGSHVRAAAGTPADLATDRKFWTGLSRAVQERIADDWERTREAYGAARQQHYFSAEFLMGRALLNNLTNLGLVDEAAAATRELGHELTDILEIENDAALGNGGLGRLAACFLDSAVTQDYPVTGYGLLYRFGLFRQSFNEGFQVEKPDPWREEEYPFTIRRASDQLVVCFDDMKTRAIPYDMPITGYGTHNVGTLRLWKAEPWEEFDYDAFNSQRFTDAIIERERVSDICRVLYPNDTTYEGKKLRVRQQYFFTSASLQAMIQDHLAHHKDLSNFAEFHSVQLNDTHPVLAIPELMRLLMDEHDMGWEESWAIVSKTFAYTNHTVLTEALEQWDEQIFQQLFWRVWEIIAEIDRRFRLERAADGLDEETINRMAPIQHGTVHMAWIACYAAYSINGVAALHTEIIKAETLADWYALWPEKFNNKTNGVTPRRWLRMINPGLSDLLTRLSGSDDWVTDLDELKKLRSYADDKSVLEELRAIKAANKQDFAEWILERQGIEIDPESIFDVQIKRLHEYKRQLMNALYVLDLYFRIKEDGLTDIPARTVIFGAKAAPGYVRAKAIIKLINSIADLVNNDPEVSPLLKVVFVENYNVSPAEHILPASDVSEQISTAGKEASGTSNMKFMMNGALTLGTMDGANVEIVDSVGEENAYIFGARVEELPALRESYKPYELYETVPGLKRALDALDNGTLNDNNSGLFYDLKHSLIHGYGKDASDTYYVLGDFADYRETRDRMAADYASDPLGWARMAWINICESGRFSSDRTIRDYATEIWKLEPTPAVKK
T5 sequence (Q8KQ56 entry or part of it T29A): as the sequence (Q8KQ56 entry or part of it) above, with T29A counted along it
T4 sequence (Q8KQ56 entry or part of it S175A): as the sequence (Q8KQ56 entry or part of it) above, with S175A counted along it
T2 sequence (Q8KQ56 entry or part of it K32A): as the sequence (Q8KQ56 entry or part of it) above, with K32A counted along it
T3 sequence (Q8KQ56 entry or part of it R142A): as the sequence (Q8KQ56 entry or part of it) above, with R142A counted along it

Compound: O=P(O)(O)O [orthophosphate]
inactivation at 45°C / 10.0 mM Pi [1]: 280 min

Compound: O=S(=O)(O)O [sulphate]
maximum stimulation of Vs at around 10 mM sulphate [7]: ~ 3 fold

Compound: Corynebacterium callunae starch phosphorylase R141A (enzyme)
half-life time (t1/2) of enzyme activity at 45°C, pH 7.0; no Pi, 10.0 mM Pi, 100 mM Pi (2.9, 7.5, 1.4 × 10^3 min) [9]: 1400 min
half-life time (t1/2) of enzyme activity in 0.4 M imidazole at 30°C; no Pi, 5.0 mM Pi (6.4, 27 min) [9]: 27 min
stoichiometry N [10]: 2 and 4

Compound: Corynebacterium callunae starch phosphorylase S174A (enzyme)
half-life time (t1/2) of enzyme activity at 45°C, pH 7.0; no Pi, 10.0 mM Pi, 100 mM Pi (2.8, 33, 9.9 × 10^2 min) [11]: 990 min
half-life time (t1/2) of enzyme activity in 0.4 M imidazole at 30°C; no Pi, 5.0 mM Pi (14, 58 min) [11]: 58 min
enhancement of Vs by 10 mM sulphate, 50 mM G1P; protein 2.5 nM (~5-fold) and 50 nM (1.7-fold) [12]: 5 fold

Compound: Corynebacterium callunae starch phosphorylase, wild-type (enzyme)
half-life time (t1/2) of enzyme activity at 45°C, pH 7.0; no Pi, 10.0 mM Pi, 100 mM Pi (2.6, 2.8 × 10^2, 3.5 × 10^3 min) [14]: 3500 min
half-life time (t1/2) of enzyme activity in 0.4 M imidazole at 30°C; no Pi, 5.0 mM Pi (22, 160 min) [14]: 160 min
stimulation of the initial rate of glucan synthesis (Vs) by sulphate (5.0 - 40 mM (NH4)2SO4), 50 mM G1P, relative to the control lacking sulphate; maximum at around 10 mM sulphate [15]: 3 fold
apparent activation of Vs by 10 mM sulphate at 2.5 nM protein, 50 mM G1P [16]: 2.4 fold

The next lines start with the values.

PLP / [μM/μM protein] [2]: 0.6 μM/μM protein
PLP / [μM/μM protein] [3]: 0.7 μM/μM protein
PLP / [μM/μM protein] [4]: 0.7 μM/μM protein
PLP / [μM/μM protein] [5]: 0.6 μM/μM protein
PLP / [μM/μM protein] [6]: 0.7 μM/μM protein
Compound: Cc1ncc(COP(=O)(O)O)c(C=O)c1O [pyridoxal 5'-phosphate]

half-life time (t1/2) of enzyme activity at 45°C, pH 7.0; no Pi, 10.0 mM Pi, 100 mM Pi (5.3, 1.7 × 10^2, 3.5 × 10^3 min) [8]: 3500 min
half-life time (t1/2) of enzyme activity in 0.4 M imidazole at 30°C; no Pi, 5.0 mM Pi (10, 25 min) [8]: 25 min
Compound: Corynebacterium callunae starch phosphorylase K31A (enzyme)

half-life time (t1/2) of enzyme activity at 45°C, pH 7.0; no Pi, 10.0 mM Pi, 100 mM Pi (0.8, 2.2, 3.3 × 10^2 min) [13]: 330 min
half-life time (t1/2) of enzyme activity in 0.4 M imidazole at 30°C; no Pi, 5.0 mM Pi (1.9, 5.6 min) [13]: 5.6 min
Compound: Corynebacterium callunae starch phosphorylase T28A (enzyme)
